The target in this assay is human hair (hair keratin) (human). The assay can be described thus: quantitative hair binding assay, peroxidase coupled via the His tag, TMB.

B1: KBD-B (keratin-binding domain B of human desmoplakin), His-tagged, expressed from pQE30-KBD-B (SEQ ID No.: 166) (protein)
chain: MRGSHHHHHHGSACELEPHTGLLLLSVQKRSMSFQGIRQPVTVTELVDSGILRPSTVNELESGQISYDEVGERIKDFLQGSSCIAGIYNETTKQKLGIYEAMKIGLVRPGTALELLEAQAATGFIVDPVSNLRLPVEEAYKRGLVGIEFKEKLLSAERAVTGYNDPETGNIISLFQAMNKELIEKGHGIRLLEAQIATGGIIDPKESHRLPVDIAYKRGYFNEELSEILSDPSDDTKGFFDPNTEENLTYLQLKERCIKDEETGLCLLPLKEKKKQVQTSQKNTLRKRRVVIVDPETNKEMSVQEGVDLQPSLIS
The molecule B1 had an absorption at 405 nm of 0.65 A405 nm.

The record behind these values is US20090099075A1.
